Assay: soluble fraction after stress (log2 fold change); higher = more stays soluble; pooled small domains, quantitative proteomics
Details: stress: 50 degC
Summary of the method: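 Pooled custom libraries of small protein domains were measured in a high-throughput format, with quantitative proteomics as the read-out. Each library was stressed at 50°C. Aggregation propensity is given as the base-two logarithm of the fold change in how much of each protein stays soluble after the stress. Higher values mean a larger share of the protein remains in solution.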

Sequence | soluble fraction (log2)
HMAPSLQISLKQAIITAQQQHPGSKALNADFDGARGTPRYVIETLLPTGELRELTIDAQSGQVMEDHPDR | 0.119
HMSAPGYRAVYPGMLESERQTAYELLSSSGFDVKINTSSGELEVTTDRYHEARMVMASQNIPK | 0.0432
HMTEALEFTVEDLRMAGLVNSSFSRRRRELFSEKLGIGYGNGKSLLKKLNGYGITREEFNGAIQSLSD | -0.747
HMNSNTIIFSQFLSEVDNGRVTQVQIQGNNIKGTLSNGKDFITYAPNDPNLIEKLTSKGVSISASPID | 0.0608
HMTLSVRQRMSQIINKIDVSNFTDFTKLFDINEGRLGVAVTFLAILELLKDTMIDVIQNEEFAPLHIKVSS | -0.177
HMAVQEDAGLAREDLPPEVQGLLQEREAARAAKDWGKSDALRRQLQDLGYAIKDTAQGMEIKRT | 0.425
HMDALTLSIDAQGALYWNGQPVSRELAAQRFVEAAAQRPQPELHLRADQNVAYRHVAMTLADASRAGLTR | -0.0244
HMKVVEKHIVPQIQNPIRLQEYASSIFKTITTRSGIKKAIKKQLILLNRKPANTGDWIKEGQLLELLAEE | -0.242
HMADYSMDDNAWNAKKADIDEWFEANPDFSANKAITDGLFSIGDSQVEMRKRYWASIAGVFAGLPNSPIG | -0.152
HMDKKTMFNEALAKLVSYATAHDNLITMEDVKSFFNGLIDDDSQYKLIYDYLSINKIEIKGFT | 0.2
HMKSSTEIIYSDFLREVSNGQISEVTIQGDFVRGLFLSGSSFQTYAPKDSNLINILRDKKVRIKVHPP | -0.134
HMQWGKVRRLPSGRYQASYVHKGTRYTAPETYTVQGRAHGWIESERRLIVTDTWTPPDTRPS | -1.78
HMEDSSSILNRMRKLIALLNRASEAYYKENKEIISNFEYDRLYDELLGLESRSNTVLSGSPTYKV | -1.63
HMERLSNQVYAILKEMIADYRFNPGARINVEQIAKEVGASRTPVWEAVHRLVQEGLLENIPNRGVFML | -1.41
HMTGQLTEEELKQRQERAMSNPEIQGILSDPVMRQVLQDMSTDPKAAAEHQRNPTIMAKIQKLINAGIVQV | 0.11
HMTATKDLPFSTFITEVEKGNITSVDIKGNQIEGTFSNGAKFKTYSPNYPNLVERLADKGVAISAGPS | 0.047
HMGGNKILTWKTDAATTRNQVPINERKEGLEISYKNEERNWVAEKYVGTSFSDDKWGVDYNWNQD | 0.421
HMFEDYNELDEYLETRFIPTYVLLKQRKNANGEIDHFPSIRLQHIMALKLSEAELEHVMNYLKEKNIRVG | -0.325
HMGLVDSLEPLLRRVYEALPQRRSMTTERLAVAAGLDEESVKVALARLQLSAFVGVDERGWHRSL | -1.11
HMQGRIYLNPDLAEKLRAQYAAYPHWSYLLHTENLGALVRKTESLGPMPSYSTILRYMHANDMRKRNKP | -1.6
HMASISDRIRLLRAESHMTQEEFGRIFGISKPTVSFYEHGKSVPNDQIKTAIARYFGVSVDYLLGVTD | -1.89
HMVVYFGGPVMLERGIVLHTPDISTKGTINVSDDFALTAHKEILDNINKDTSSLQFKLAIGH | -0.895
HMLVYQRLDKDNFIFEGKTLLNDIYKILDIESNYFEAIRGEADSIAGLLLEIAKSIPTINTEF | -0.171
HMNDTPPELRAALDLLGLKWPLASVELRARYKDLAKQHHPDATGGDKQAEERLKDINRAYSLLKHRLAKQ | -0.07
HMGMKTSQKLARQREIVRLIRAQTIRTQAELADALRERAFPVSQPTLSKDIAELGLIKVPLPDSGYRYQLP | -0.378
HMPDKIDSAAQGILDKLIRNDGFMAVTDKSPPEAIYKLFGVSKKVFKQAIGSLYKNRLITIEDAGLRIIPQ | -0.0609

Sequence | soluble fraction (log2)
HMTDDALIGKTAQVTVAIKPGSVGQITARVGDERVERLARASADAEIAAGSLVTIKSIAGDSVIVAPE | 0.144
HMAPLQDENGDLTFSYNGKTYTVNVNSEEDRNSFAEDFNKENGKKFSWFKERAGLQHYVFYDTEM | -0.19
HMSLPNNLIEQLQDPEPKARRRAVRRLAATRDPSAIPLLRNVYLQDGDDRVRDAAEAALVQFRAMQHN | 0.0586
HMREPDPELTASIKSMAESNDQSERLVALAQLSEQRAVDPEVADQILLIALLDEDPIIRGQAVYA | 0.264
HMPVFYVTGNRVNFRAGPSTGDRVIGSLSQGAAVEVLGPTDDAWINIRDSDGRVGYMSAQFLSQ | -0.069
HMAGFGDSLEKMSDAVEALKLLMSTEDARNDQNIQKIARELKDVFNKYRTHLRKSYPDQYDRIKSTL | -0.299
HMVVTRVKAIDVVNIRKSDSETADKLGKAAVGDEFDLLEKKGNGWSKISYEGGEAYIKSEFLEPSE | 0.145
HMLTEERLQIITDTVNSRSSVTIAELSRILDVSPSTVKRDLNILAEAGKITKVRGGAIALGE | -0.0232
HMYFNTADLKADSIHYGSTEQSVIKILGEPEYRETFVDNNVSYELFSYKGNLLLSFVENSLVSL | 0.0896
HMYSNDEIVNYLKNYIFDNFNLNELSDEELEEKIAELVQQQFAGQLLSLDEKVKLVNQVYSSIR | 0.0129
HMDKFKDVGARIREARKVQKLSQADLAERLQISTSHMSDIENGKKNIGLDIFMRLTEALQVSADWLL | -0.124
HMSEPIYTQLKEILTQKIVNGEFPPGARLPSEYELTELYHISRSTVRLALKELEASGMIVRRRGKGTFVSS | -1.76
HMKSVQIPQSITVKEFSQAIEVSVADVIKKLMSMGVMVSQNKEINVDTAILVGEEFGVTVNVA | 0.0996
HMVVMEIGANGSEVVKLQKRLNQLGYYTEHASGVYDVKTASAVNEFQRQNELNATGKADYTTLDMIYNQ | 0.02
HMGNIADARRDASYVFLIGEWAKSSNLTEKKLAGLIQSNHLDIKYGITVTDVIADIRKYKNDPTYNPF | -0.305
HMSDAIQLEQKIGLEAIEWYLALSEQTDDKLLYQQWQSWLAADPQHQLAWSRIEQVNHGLNTL | -0.706
HMEFPYISGVDVGTISNKEFARFETTKASDIVIALDKSGIPFSARFGDSEIVLTYDGSYKEEVEEIIAKV | 0.0138
HMDDPISSMVNRIRLAFGLSVTDLAAVLGVERPTIYSWLKDGSTPAPARLTRVRQVLSLADTW | -0.194
HMEYDEVVVVKQIIPKGKNTMVAHLKHLKEHGETGFLKQAVGYLKLHASEIPFSVDAVISEVH | -0.361
HMGMVKLNEEYLEKVKKHRKELHITQLQISKKLGWSLSRYQRFESGFYKEIEDDAPKKIKEEFGIDYSLL | -0.976
HMKPVPPLNGTSLRDLALGYAGRYATTAARLKHYLQRKLRERGWGGEDEPDLDGLVARLVELGYVNDEVF | -0.102
HMVEVPKVAGMSTAQGVSELEQKGFVVNRTESYDDTVPKGNIISQTPEGGTKVPSGSAVTIKISQGAE | -0.157
HMLMRKAEVGVESLNLRHGPGTQYKVLEILPGGKSLHYLAEPRRGWVRVTTEEGTTGWTFLKFLKPE | -1.96
HMLLREKLESVLPFISVSALAKTYFKRSPQWFYQRLNGSIVNGKPIRFNDAELKTLAGALTDIGKKISQAA | -0.322
HMVSGVMAQQAIAVLVQQEDKHAPLSDQALAERLQVQGIDISRRTVAKYRQLLQIPSAATRR | -0.419
HMDVNLSIRSGETIGIIGSTGSAKSTLVQLIPRLYDTTEGEVLVGGVNVKNYDLEALRNSVAMVLQKN | -0.066

Sequence | soluble fraction (log2)
HMLRMTRNRQKLVEVLMESGRPLSADEIREAAGFASTDLVTVYRNLEAFQSAGLLQRIPLENGSQLFELT | -0.478
HMLARPTANELVKEMQRRAKEQRTELPPDAARDLLERSGQDQFLLGNEVDKLAALSGYTTITREMVAQAGT | 0.186
HMSNENIDQDELQAIIQKVLASNQDAVAKYKAGKTAVIGFLIGQVMRQLNKKIDVALAKKTLLVFLEK | -0.396
HMTTETGTVKWFNEGKGFGFIAPDGGGKDLFAHFKEIQGSGFKTLTENQRVQFEVTQGQKGPQASNIRTL | 0.243
HMDANAYTYKVSEDTDTRTGEKIFLVKVAEKLSRKEYIVVNNYMKSLGSYYSKFKHAFLFKENPTEKL | -0.23
HMSREQARRFYFDTWAKHRASQPLTDLEKIALTVMLLHPEYHSLLDKPDHYVDKDYSPEAGQTNPFLHM | -1.2
HMAGTRRFELVEGSSSKFWEVTVADGSYTVTYGRIGTAGGSKTTESATAEADAEKLVREKLKKGYQEAGAA | 0.245
HMRSMEKRLTAKVKRVQEGVQAKSQAGEQPFEVVKLMQRFPKLMQFGKHAEAETVLDKALELLGEE | 0.172
HMYKSSRASKSEVNKFLKFIIQSLDKRGFLQPGHKRQSMIRNIENIFYRTNLSDQEIRILLGIFSTLNK | -0.62
HMTSVFQNSDGTWGHLTKTVNPLIYTIEYGRRTGFSSREEAEESYQRSLTSYQDQLSKLKKERD | 0.314
HMNGDWISARQEYYIRGLWDLASRAKDEASLQAMLQRIAGVTQIEWISKEKATKVILALRDIAKK | -1.68
HMSVYIGVDQAKSIAAEHAGLSNSAVTFSKAKLENDDGMTVYEVEFFYQGTEYDYKIDASTGSILEYDLDR | -1.26
HMVFLPDEIFRLKVIKAGEGPEQGVGYLDDGTMVVIEGARDRIGDELEVRVTSTLQTNAGKMIFTKFE | -0.186
HMHNSPSPVATTILRFLQPVRAFVGDTEDMRTFGPFLREDVAMVPASQAKNLIRSGHAVEINP | -0.0361
HMAPPIQQQVESLMNSFAKIGVTVPMLESRLQHAMSAVTANELVMLRKIGASIRDGFATVAEQFPA | 0.0539
HMSRQAPIGHRIRGRRKDIGMTQNALAKAAGISPSYLNLIEHNRRSIGGGLLMRIAAILDIHPHTL | -2.23
HMISDQENDLNLKHLFDTADQNKDGLILESELKMLMTNLEINKETYDTVMKQITPAGMDYKTFSSL | 0.0963
HMSDHYEVLGVDRNATDDQIKKAYRRLARELHPDVNDAPESQEKFKLVTHAYEVLSDPDERRKYDMG | 0.0925
HMTAQLAAQERTHALDMFMGGYKFSSKPAENGVRAEFEKKNFTLEDGKFLGGDEFMKSLMENDDYKGAFV | 0.375
HMHIVQEGDSLYGIARQYRITVEELRSLNALETADVIVPYQKLYV | -0.942
HMKGRPTTAIITDERTNLRSGPGATNKTIAQAGAGEKLAIIDEKDGWYQVSRAGINGWVAGWVIDVAW | -0.441
HMEDESSIERYLGSGAIKGIGPSLAARIVKKFGKDTFRIIEQEPERLAEIKGISERKAMEISTLMEEK | 0.0193
HMGLAGVQSDVKVSFDGDLLVVTSDIARSFNLFAVDGRLIRSVNLIAGRNEIRGLERGFYLAEKQKIFV | -2.07
HMSDNLTIVRAVYSGLSQRQAAATYHVSRNTVSLLLRHARNRGWLTLEDLAQLDNAAFSKSL | -4.13

From the domain aggregation screens of Martell et al. (2025)
